Data: patent US20220323495A1

Key:
[1] = biological target: recombinant human EGFRvIII protein, native (human) (UniProt P00533); assay: ELISA on coated native recombinant antigen; Exp 1
[2] = biological target: recombinant human wild-type EGFR protein, native (human) (UniProt P00533); assay: ELISA on coated native recombinant antigen; Exp 1
[3] = biological target: recombinant human EGFRvIII protein, denatured (human) (UniProt P00533); assay: ELISA on coated denatured recombinant antigen; Exp 2, mAb 1 µg/ml
[4] = biological target: recombinant human EGFRvIII protein, native (human) (UniProt P00533); assay: ELISA on coated native recombinant antigen; Exp 2, mAb 1 µg/ml
[5] = biological target: recombinant human wild-type EGFR protein, native (human) (UniProt P00533); assay: as above
[6] = biological target: recombinant human wild-type EGFR protein, denatured (human) (UniProt P00533); assay: ELISA on coated denatured recombinant antigen; Exp 1
[7] = biological target: recombinant human EGFRvIII protein, denatured (human) (UniProt P00533); assay: as above
[8] = biological target: recombinant human wild-type EGFR protein, denatured (human) (UniProt P00533); assay: ELISA on coated denatured recombinant antigen; Exp 2, mAb 1 µg/ml

ELISA absorbance (405 nm) [1] [A405] | ELISA absorbance (405 nm) [2] [A405] | ELISA absorbance (405 nm) [3] [A405] | ELISA absorbance (405 nm) [4] [A405] | ELISA absorbance (405 nm) [5] [A405] | ELISA absorbance (405 nm) [6] [A405] | ELISA absorbance (405 nm) [7] [A405] | ELISA absorbance (405 nm) [8] [A405] | Substance
1.08 | 1.2 | 0.004 | 1.5 | 1.32 | -0.01 | 0.001 | – | 225 monoclonal antibody (ATCC HB-8508)
– | – | – | -0.001 | – | – | – | 0 | Neg ctrl mouse mAb (antibody)
